A short description of one test: Glycan array, GcSTn. Conditions: for Glycan Array GcSTn: summary table. The test is classed as binding. As to the method:
(§1) Optimized glycan arrays comprise 71 chemically synthesized and well-defined glycans, most of which comprise Neu5Ac and Neu5Gc glycan pairs.
(§2) 300 ml of epoxy blocking buffer is prepared by combining 15 ml of 2 M Tris buffer (pH 8) with 0.9 ml of 16.6 M ethanolamine and 284.1 ml of distilled water. The solution was brought to a final pH of 9.0 with HCl. The solution is filtered using a […] nitrocellulose membrane. The epoxy buffer solution as well as 1 L of distilled water are pre-warmed to 50° C. Glass slides are arranged in a slide holder and quickly submerged in a staining tub with the warmed epoxy blocking buffer. Slides are incubated in the epoxy blocking buffer for 1 hour at 50° C. with periodic shaking to deactivate epoxy binding sites. Next, slides are rinsed and blocked with PBS with 1% OVA at 25° C. for one hour. Serum samples with polyclonal antibodies (1:1000) or purified monoclonal antibodies (1 ug/mL), are diluted in PBS with 1% OVA and added to the glycan array for one hour at 25° C. After extensive washing, binding of antibodies are detected by incubating glycan microarray slides with Cy3-conjugated anti-mouse IgG (Jackson Immunoresearch, West Grove, Pa.) for one hour. Slides are then washed extensively, dried and scanned with a Genepix 4000B scanner (Laser at 100%; gain at 350; 10 μm pixels). Raw data from scanned images are extracted using the Genepix software and analysis of raw data is carried out.

A short description of another test: Glycan array, AcSTn. The test is classed as binding. The note with it: for Glycan Array AcSTn: summary table. The protocol: as §1, §2
In test [1] the test system is ST6GalNAc 1 transfected MDA-MB-231 cells (MDA-STn+). Briefly: Flow cytometry-based analysis of antibody binding, STn+ cells. Also noted: species or system human. Conditions: for EC50, flow cytometry binding to cell-associated STn: ST6GalNAc 1 transfected MDA-MB-231 cells, APC anti-mouse IgG. The protocol:
Flow cytometry-based analysis is carried out to elucidate the curve-dose response for binding of antibodies to cell surface antigens. For these analyses, three cell lines are employed.
MDA-MB-231 cells are human breast cancer cells. They are grown in Earle's Minimum Essential Medium supplemented with 10% fetal calf serum (FCS), 100 μg/ml penicillin, 100 UI/ml streptomycin and 45 μg/ml gentamycin. MCF-7 cells are also human breast cancer cells and are grown under the same conditions as MDA-MB-231 cells. Stably transfected versions of MDA-MB-231 and MCF-7 cells (clone TAH3.P10 for MDA-MB-231 cells and clone A12.1 for MCF-7 cells) that over express GalNAc α2,6-sialyltransferase (ST6GalNAc 1,) are also cultured under the same conditions with the exception of an added 1 mg/ml of G418 to support cells expressing the transgene. ST6GalNAc 1 is an enzme capable of sialylating GalNAc. As a result of over expression, transfected cells express high levels of Neu5Ac-STn (see Julien, S. et al., Glycoconjugate journal. 2001. 18, 883-93; the contents of which are herein incorporated by reference in their entirety). E3 cells are murine breast cancer cells. They are cultured in Dulbecco's E4 medium with 10% FCS. Stably transfected versions of E3 cells expressing high levels of Neu5Gc-STn (E3-STn) are cultured with 600 μg/ml of G418 and 200 μg/ml hygromycin. During growth and maintenance of experimental cells, trypsin is not used for cell passaging.
For analysis, cells are harvested using StemPro Accutase (Life Technologies, Carlsbad, Calif.) and washed with PBS comprising 5% FBS before pelleting by light centrifugation. Cell numbers and viability are determined by trypan blue dye exclusion analysis and cell concentrations are adjusted to 5×10^6 cells/ml in PBS with 5% FBS. 50 μl of cells are added to each well of an assay plate. Cells are combined with 50 μl solutions of antibody being analyzed or control antibodies and incubated for 1 hour at 4° C. Cells are washed and pelleted twice with PBS with 5% FBS before being treated with 100 μl of PBS with 5% FBS comprising a 1:1,500 dilution of anti-mouse IgG (Southern Biotech, Birmingham, Ala.,) conjugated to allophycocyanin (APC). Cells are incubated for 30 min at 4° C. before washing and resuspending in 200 μl of propidium iodide (PI) diluted 1:1000 in PBS with 5% FBS. Treated cells are then subjects to flow cytometry analysis and 10,000 events are acquired for each sample.
On the technique in general: A flow cytometer gives signals particle by particle.

Test [2] can be described thus: Glycan array STn specificity and anti-STn antibody group assignment. The test is classed as binding. Also noted: key to Group (anti-STn antibody group): Group 1: antibodies capable of binding AcSTn and GcSTn; Group 2: ability to bind STn as well as some related structures that include an O-linkage to serine or threonine; Group 3: antibodies capable of binding STn, but may also bind a broader set of related structures; Group 4: capable of binding to both AcSTn and GcSTn as well as the un-sialylated Tn antigen. Conditions: for Group (anti-STn antibody group): assigned from flow cytometry and glycan array analysis; for Glycan Array STn Specificity: summary table. The protocol: as §2
Based on characterization data, anti-STn antibodies developed from Group 6 and Group 8 mice were categorized by anti-STn group number. In some cases, antibodies were assigned to Group 1. Group 1 antibodies according to the invention are antibodies capable of binding AcSTn and GcSTn. Such antibodies may have the ability to associate with a wider range of STn structures. The large oval in FIG. 1A indicates the portion of STn recognized by Group 1 antibodies. Antibodies were assigned to Group 2 based on their ability to bind STn as well as some related structures that include an O-linkage to serine or threonine. The large oval in FIG. 1B indicates the portion of STn recognized by Group 2 antibodies. In some cases, Group 2 antibodies may bind to glycans comprising a sialylated galactose residue. Some Group 2 antibodies preferably bind to structures with AcSTn over structures with GcSTn. Further anti-STn antibodies were assigned to Group 3. Group 3 antibodies are antibodies capable of binding STn, but may also bind a broader set of related structures. […] The large oval in FIG. 1C indicates the portion of STn recognized by Group 3 antibodies. Finally, some anti-STn antibodies were assigned to Group 4. Group 4 antibodies are capable of binding to both AcSTn and GcSTn as well as the un-sialylated Tn antigen, and therefore have broader specificity. The large oval in FIG. 1D indicates the portion of STn recognized by Group 4 antibodies. […] Also listed in the Table is the antibody Isotype for each antibody as determined by the IsoStrip mouse monoclonal antibody isotyping kit (Roche Diagnostics GmbH, Manheim, Germany).

The mark [3] stands for this setting: glycan microarray, Cy3 anti-mouse IgG.
The mark [4] stands for this setting: summary table, unit not printed (same values in nM), read-out: Flow cytometry (EC50) MDA-STn+.
Setting [5] is: STn expressed on MDA cells, based on mean fluorescence intensity of APC, #1, #2, #3 = lots, nM, read-out: EC50 value.

Numbering of substitutions follows the chain as printed. Values joined by “and” are separate entries in the source; they are usually repeats but may differ in a detail not shown here. Identical values can stand only once. Like-named read-outs stand apart in the source and are kept apart here.

B1: 18C7: anti-STn mouse monoclonal, IgG2c κ, from mouse #4436; VH SEQ ID NO: 4, VL SEQ ID NO: 5 (antibody, V domains shown)
VH: QVTLKESGPGILQPSQTLSLTCSFSGFSLSTFGMGVGWIRQPSGKGLEWLAHIWWDDDKYYNPALKSRLTISKDTSKNQVFLKIANVDTADTATYYCARIAYYYGSERDYWGQGTTLTVSS
VL: QIVLTQSPAIMSASPGEKVTMTCSASSSISYMHWYHQKPGTSPKRWIYDTSKLASGVPARFSGSGSGTSYSLTISSMEAEDAATYYCHQRSSYTFGGGTKLEIKR
By EC50 is commonly meant the midpoint of the concentration-response curve. Consider B1, for which the “mean fluorescence intensity, GcSTn” value in the test “Glycan array, GcSTn” (setting [3]) is given as “about 3,500”. For the same molecule, in “Glycan array, GcSTn”, the “Glycan Array GcSTn” value is listed as 40%. Moreover, in the test “Glycan array, AcSTn” (setting [3]), the “mean fluorescence intensity, AcSTn” value was “about 9,000”. Moreover, in the test “Glycan array, AcSTn”, the “Glycan Array AcSTn” value is given as 60%. For the same molecule, the “EC50, flow cytometry binding to cell-associated STn” value (“EC50, flow cytometry binding” below) in test [1] is recorded as 60.35 nM. For the same molecule, the EC50 in test [1] (setting [4]) was 354 nM. Moreover, in test [2], the “Group (anti-STn antibody group)” value is “Group 1” and the “Glycan Array STn Specificity” value is 100%.

B2: 10A5: anti-STn mouse monoclonal, IgG2c κ, from mouse #4406; VH SEQ ID NO: 6, VL SEQ ID NO: 7 (antibody, V domains shown)
VH: QVQLKESGPGLVAPSQSLSITCTVSGFSLTSYGVSWVRQPPGKGLEWLGVIWGDGSTNYHSSLISRLSISKDNSKSQVFLKLNSLQTDDTATYYCARAFVYWGQGTLVTVSA
VL: QIVLTQSPAIMSASPGEKVTMTCSASSSVSYIHWYQQKSGTSPKRWIYDTSKLASGVPARFSGSGSGTSYSLTISSMEAEDAATYYCQQWSSNPPMLTFGAGTKLELK
Regarding B2, in the test “Glycan array, GcSTn”, the “Glycan Array GcSTn” value was 1%. Besides, the “Glycan Array AcSTn” value in the test “Glycan array, AcSTn” turned out to be 96%. The “EC50, flow cytometry binding” value in test [1] was 3.62 nM and 5.57 nM. The EC50 in test [1] (setting [5]) and in test [1] (setting [4]) was 5.57 nM in each case. In addition, the “Group (anti-STn antibody group)” value in test [2] is on record as “Group 2”. Besides, in test [2], the “Glycan Array STn Specificity” value was determined as 97%.

B3: 8C11: anti-STn mouse monoclonal, IgG2b κ, from mouse #4407; VH SEQ ID NO: 8, VL SEQ ID NO: 9 (antibody, V domains shown)
VH: B2 VH with S62A, S68I, A96T, R97K, A98G, V100T
VL: QIVLTQSPAIMSASPGEKVTMTCSASSSVSYMHWYQQKSGTSPKRWIFDTSKLASGVPARFSGSGSGTSYSLTISSMEAEDAATYYCQQWSSNLLTFGAGTKLELK
On to B3, for which, in “Glycan array, GcSTn”, the “Glycan Array GcSTn” value is listed as 9%. In addition, the “Glycan Array AcSTn” value in the test “Glycan array, AcSTn” is given as 75%. Besides, the “EC50, flow cytometry binding” value in test [1] came out at 7.52 nM; in test [1] (listed as 8C11 Lot 111113), 7.28 nM. In addition, the “Group (anti-STn antibody group)” value in test [2] is “Group 2”. In addition, the “Glycan Array STn Specificity” value in test [2] amounted to 84%.

B4: 7G9: anti-STn mouse monoclonal, IgG2b κ, from mouse #4407; VH SEQ ID NO: 12, VL SEQ ID NO: 9 (antibody, V domains shown)
VH: B2 VH with S17N, S35N, S62A, S68I, D72E, D88N, A96T, R97K, A98G
VL: B3 VL
Turning to B4, the “Glycan Array GcSTn” value in the test “Glycan array, GcSTn” is 7%. Further, in “Glycan array, AcSTn”, the “Glycan Array AcSTn” value stood at 72%. Also, the “EC50, flow cytometry binding” value in test [1] amounted to 6.91 nM; in test [1] (listed as 7G9#2), 7.33 nM; in test [1] (listed as 7G9#3) it was 5.15 nM. The concentration for a half-maximal effect (EC50) in test [1] (setting [5]) and in test [1] (setting [4]) was 5.15 nM each time. Moreover, the “Group (anti-STn antibody group)” value in test [2] is on record as “Group 2”. The “Glycan Array STn Specificity” value in test [2] was found to be 79%.

B5: 2D4: anti-STn mouse monoclonal, IgG2b κ, from mouse #4407; VH SEQ ID NO: 10, VL SEQ ID NO: 11 (antibody, V domains shown)
VH: B2 VH with K5Q, T30I, S35N, H60Q, S62A, S68I, A96T, R97K, A98G, V100A
VL: B3 VL with Y35F, F48Y
As for B5, the “Glycan Array GcSTn” value in the test “Glycan array, GcSTn” is 1%. Further, in “Glycan array, AcSTn”, the “Glycan Array AcSTn” value worked out at 88%. Also, the entries for the “EC50, flow cytometry binding” value in test [1] and in test [1] (listed as 2D4-1B4) were 1.41 nM and 1.19 nM, respectively. In addition, the EC50 was found to be 2.23 nM in test [1] (STn expressed on MDA cells, based on mean fluorescence intensity of APC, #1, #2, #3 = lots, nM, listed as 2D4#1, read-out: EC50 value); 1.41 nM in test [1] (STn expressed on MDA cells, based on mean fluorescence intensity of APC, #1, #2, #3 = lots, nM, listed as 2D4#2, read-out: EC50 value); 1.41 nM in test [1] (setting [4]). Further, in test [2], the “Group (anti-STn antibody group)” value was “Group 2”. Further, the “Glycan Array STn Specificity” value in test [2] came out at 89%.

The values above are taken from patent US20180280504A1, “GLYCAN-INTERACTING COMPOUNDS AND METHODS OF USE” (SIAMAB THERAPEUTICS, INC., priority 2014, published 2018).
